Data: doi:10.1101/2022.09.14.507916

Biological target: octameric HlgAB pore complex of γ-hemolysin (four HlgA and four HlgB, alternating) (Staphylococcus aureus (strain Newman))
Assay: cryo-EM structure

octameric HlgAB pore complex of γ-hemolysin (four HlgA and four HlgB, alternating)
stoichiometry N: 6
